In patent US11371056B2, “HPPD variants and methods of use” (BASF Agricultural Solutions Seed US LLC, priority 2017, dated 2022):
Positions count from the first letter of the chain named.

B1: SEQ ID NO:26 (protein)
chain: MADLYENPMGLMGFEFIEFASPTPGTLEPIFEIMGFTKVATHRSKNVHLYRQGEINLILNNEPNSIASYFAAEHGPSVCGMAFRVKDSQKAYNRALELGAQPIHIDTGPMELNLPAIKGIGGAPLYLIDRFGEGSSIYDIDFVYLEGVERNPVGAGLKVIDHLTHNVYRGRMVYWANFYEKLFNFREARYFDIKGEYTGLTSKAMSAPDGMIRIPLNEESSKGAGQIEEFLMQFNGEGIQHVAFLTDDLVKTWDALKKIGMRFLTAPGDEYYEMLEGRLPDHGEPVDQLQARGILLDGSSVEGDKRLLLQIFSEQLMGPVFFEFIQRKGDDGFGPHSFKVLFESIERDQVRRGVLTAD
modifications: mutant HPPD polypeptide
B2: SEQ ID NO:28 (protein)
chain: B1 chain with Q315T
modifications: mutant HPPD polypeptide
B3: SEQ ID NO:38 (protein)
chain: B1 chain with L264M, Q315T, S344Q, I345M
modifications: mutant HPPD polypeptide
B4: SEQ ID NO:36 (protein)
chain: B1 chain with L264M, S344Q, I345M
modifications: mutant HPPD polypeptide
B5: SEQ ID NO:35 (protein)
chain: B1 chain with L264M, Q315K, S344Q, I345M
modifications: mutant HPPD polypeptide
B6: SEQ ID NO:57 (protein)
chain: B1 chain with R213K, L264M, S344Q, I345M
modifications: mutant HPPD polypeptide
B7: SEQ ID NO:61 (protein)
chain: B1 chain with R213K, H336D, S344Q, I345M
modifications: mutant HPPD polypeptide
B8: SEQ ID NO:4 (protein)
chain: B1 chain with L264M, H336D
modifications: mutant HPPD polypeptide
B9: SEQ ID NO:5 (protein)
chain: B1 chain with L264M, Q315R, H336D
modifications: mutant HPPD polypeptide
B10: SEQ ID NO:6 (protein)
chain: B1 chain with L264M, Q315T, H336D
modifications: mutant HPPD polypeptide
B11: SEQ ID NO:7 (protein)
chain: B1 chain with Q315K, H336D
modifications: mutant HPPD polypeptide
B12: SEQ ID NO:8 (protein)
chain: B1 chain with H336D
modifications: mutant HPPD polypeptide
B13: SEQ ID NO:9 (protein)
chain: B1 chain with Q315T, H336D
modifications: mutant HPPD polypeptide
B14: SEQ ID NO:11 (protein)
chain: B1 chain with L264M, H336D, S344Q
modifications: mutant HPPD polypeptide
B15: SEQ ID NO:12 (protein)
chain: B1 chain with L264M, Q315R, H336D, S344Q
modifications: mutant HPPD polypeptide
B16: SEQ ID NO:13 (protein)
chain: B1 chain with L264M, Q315T, H336D, S344Q
modifications: mutant HPPD polypeptide
B17: SEQ ID NO:14 (protein)
chain: B1 chain with L264M, Q315K, H336D, I345M
modifications: mutant HPPD polypeptide
B18: SEQ ID NO:15 (protein)
chain: B1 chain with L264M, H336D, I345M
modifications: mutant HPPD polypeptide
B19: SEQ ID NO:16 (protein)
chain: B1 chain with L264M, Q315R, H336D, I345M
modifications: mutant HPPD polypeptide
B20: SEQ ID NO:1: reference wild-type Pseudomonas fluorescens HPPD polypeptide (protein, listed as Pseudomonas fluorescens)
chain: B1 chain with L264M, G268P, E270T, Q315T, P335E, H336G, S337N, V340A
modifications: 4-hydroxyphenylpyruvate dioxygenase (HPPD; Pseudomonas fluorescens) (1)..(358)
B21: SEQ ID NO:2 (protein)
chain: B1 chain with L264M, G268P, E270T, Q315T, H336W, S337N, K339A, V340Q
modifications: mutant HPPD polypeptide
B22: SEQ ID NO:3 (protein)
chain: B1 chain with L264M, Q315K, H336D
modifications: mutant HPPD polypeptide
B23: SEQ ID NO:10 (protein)
chain: B1 chain with L264M, Q315K, H336D, S344Q
modifications: mutant HPPD polypeptide

test system: Pseudomonas fluorescens HPPD polypeptide (wild-type and mutants); experiment: Coupled HPPD activity assay: turnover and residual turnover in crude HPPD polypeptide extracts with and without Cmpd. 1; type: biochemical; conditions: 100 μM Cmpd. 1, Table 3
Procedure: For the generation of crude HPPD polypeptide extract in micro titer plates (MTP) for the determination of residual activity in inhibition assays, cells were grown in 40 or 150 μl LB medium containing 1% Glucose (Merck, Darmstadt, Germany) and 100 μg/ml ampicillin in a standard 96 well plate (Thermo Fisher Scientific, Waltham, USA) incubated for about 18 h in a humidity incubator at 37° C. 30 μl of this starter culture were added to 600 μl LB medium containing 100 μg/ml ampicillin and 150 mM Hepes (Merck, Darmstadt, Germany) as inoculum for the expression culture in 96 well plates (2 ml deep wells; HJ Bioanalytik, Erkelenz, Germany). The plates were sealed by an aluminium foil, and cells were incubated for 5 h at 37° C. on a plate shaker at 750 rpm. The expression was induced by addition of IPTG in a final concentration of 1 mM followed by further sealed incubation for about 18 h at 30° C. on a plate shaker at 750 rpm.
Cells were harvested by centrifugation at 4° C., 2500 g for 15 min discarding the supernatant. Cell pellets were stored at −80° C. and lysed in 250 μl 1× BugBuster® (Merck, Darmstadt, Germany) in 140 mM Tris (pH 7.8), with 1:25000 diluted BNase® (Qiagen, Hilden, Germany) by incubation of the resuspended cells for 30 min at 4° C. and 1000 rpm. Lysates were clarified by centrifugation for 15 min at 4° C., 2500 g, and 150 μl supernatant were transferred in standard 96 well plate (Thermo Fisher Scientific, Waltham, USA) for subsequent testing in quadruplets.
The activity of HPPD polypeptides was determined in absence or presence of HPPD inhibitors using the coupled HPPD activity assay (FIG. 1).
For the determination of the residual activity, the apparent kinetic constant (kapp) of the determined substrate conversion was measured as kinetic changes in absorbance (OD) at 320 nm in a coupled assay, in that homogentisate (HGA) formed by HPPD from HPP is directly converted into the well absorbing molecule maleylacetoacetate (MAA) by a second enzyme homogentisate dioxygenase (HGD), applied in excess uniformly in all assays (see FIG. 1). The measurements were performed in 384 micro titer plates (Greiner Bio-One GmbH, Frickenhausen, Germany) by plate readers (Tecan infinite M1000 or M1000PRO, Tecan, Männedorf, Switzerland). The kcat/kM ratio of an enzymatic activity is proportional to the apparent kinetic constant kapp and is proportional to kcat/kM*[E] ([E]=enzyme concentration). […] As both kapp measurements in the presence and absence of inhibitor were performed by use of the identical enzyme sample, crude or purified, and thereby at the same enzyme concentration, the enzyme concentration eliminates from the calculation of residual activity and the ratio of both kapp directly indicates the change of kM due to the inhibition.
The assay solution used for determination of residual activities in raw HPPD polypeptide samples was composed by 200 mM sodium phosphate (Merck, Darmstadt, Germany, pH 7.0), 5 mM MgCl2 (Merck, Darmstadt, Germany), 20 mM ascorbate (Sigma-Aldrich, St. Louis, USA), 1 mM DTT (Sigma-Aldrich, St. Louis, USA), 0.1% Pluronic F-68 (Sigma-Aldrich, St. Louis, USA), 40 μM FeSO4 (Sigma-Aldrich, St. […] Louis, USA) and equilibrated for 20 min on ice.

Molecule	turnover and residual turnover, comparison in words
B1	significant improvement regarding residual turnover
B2	decreases the turnover and residual turnover
B3	does not show a significant turnover
B4	increases significantly the turnover and residual turnover
B5	increases significantly the turnover and residual turnover
B6	increases significantly the absolute turnover
B7	decreases the turnover and residual turnover

same assay, conditions: 100 μM Cmpd. 1, normalised to turnover without inhibitor

Molecule	Residual turnover [%]
B1	60%
B2	50%
B4	66%
B5	59%
B6	68%
B7	56%
B8	50%
B9	44%
B10	33%
B11	59%
B12	66%
B13	65%
B14	46%
B15	40%
B16	38%
B17	40%
B18	39%
B19	46%

same assay, conditions: HPPD inhibitor herbicides, FIG. 2: 200 μM HPP, 0, 4 or 13 μM Cmpd. 1

Molecule	time-course of inhibition, inhibitor characteristic
B20	slow and tight binding inhibitor

same assay, conditions: absence of Cmpd. 1; changes in absorbance (OD) at 320 nm in the coupled assay, 30 min

Molecule	Turnover
B21	0.092
B1	0.235
B2	0.203
B3	0.008
B4	0.244
B5	0.27
B6	0.34
B7	0.206
B22	0.013
B8	0.121
B9	0.162
B10	0.159
B11	0.126
B12	0.124
B13	0.109
B23	0.018
B14	0.183
B15	0.189
B16	0.168
B17	0.18
B18	0.161
B19	0.181

same assay, conditions: presence of 100 μM Cmpd. 1; changes in absorbance (OD) at 320 nm in the coupled assay, 30 min

Molecule	Residual turnover
B20	0.042
B21	0.041
B1	0.14
B2	0.102
B3	0.007
B4	0.162
B5	0.158
B6	0.232
B7	0.116
B22	0.012
B8	0.06
B9	0.071
B10	0.052
B11	0.074
B12	0.082
B13	0.071
B23	0.021
B14	0.085
B15	0.076
B16	0.064
B17	0.072
B18	0.062
B19	0.083
